We go through one molecule from article PMC5431883, “Enhancing Specific Disruption of Intracellular Protein Complexes by Hydrocarbon Stapled Peptides Using Lipid Based Delivery” (Scientific Reports, 2017).

Positions of bridges follow the written chain, without caps; N, C: chain ends. Non-standard residues stand in square brackets, D forms with d. R8 = C=CCCCCCC[C@@](C)(N)C(=O)O; S5 = C=CCCC[C@](C)(N)C(=O)O; Ahx = NCCCCCC(=O)O

Experiment [1] deals with T1, Mdm2 (1-125) (UniProt Q00987 1-125). The experiment in a line: cell-based or functional assay.
T1 sequence (Q00987 1-125): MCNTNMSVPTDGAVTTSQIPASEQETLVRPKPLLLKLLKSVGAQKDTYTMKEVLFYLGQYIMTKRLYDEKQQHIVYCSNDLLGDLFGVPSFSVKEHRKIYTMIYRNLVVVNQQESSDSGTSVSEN
The target of experiment [2] is T2, Mdm2 joined to HaloTag (UniProt Q00987 1-491, HaloTag covalently labelled with a cell permeable fluorogenic substrate).
T2 construct: Mdm2 of the p53:Mdm2 NanoBRET System (Promega); Construct of a bought kit (Promega); source: HEK293, transiently transfected, in live cells
T2 sequence (Q00987 whole entry): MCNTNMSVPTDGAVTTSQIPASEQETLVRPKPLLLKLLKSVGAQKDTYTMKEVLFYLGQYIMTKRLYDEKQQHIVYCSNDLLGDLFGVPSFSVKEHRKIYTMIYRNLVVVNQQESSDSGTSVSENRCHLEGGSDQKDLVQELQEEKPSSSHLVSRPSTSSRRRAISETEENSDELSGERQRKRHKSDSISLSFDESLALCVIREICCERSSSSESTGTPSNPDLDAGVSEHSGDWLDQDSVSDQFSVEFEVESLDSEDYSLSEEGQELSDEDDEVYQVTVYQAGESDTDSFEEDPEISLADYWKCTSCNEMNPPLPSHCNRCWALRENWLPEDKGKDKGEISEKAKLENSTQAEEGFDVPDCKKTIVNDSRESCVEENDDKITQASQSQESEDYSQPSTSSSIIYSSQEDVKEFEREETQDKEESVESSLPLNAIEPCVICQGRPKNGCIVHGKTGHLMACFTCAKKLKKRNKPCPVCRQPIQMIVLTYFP
The experiment is described as follows: FRET or BRET; nanoBRET in live HEK293 cells transfected with p53-nanoLUC and Mdm2-HaloTag; stapled peptide titrated (10 points), 0% FCS, signal after 4 hours. The conditions noted are these: one partner purified. On the technique in general: Bioluminescence resonance energy transfer reports proximity on the nanometre scale.

Experiment [3] concerns the target T2, Mdm2 joined to HaloTag. The experiment in a line: FRET or BRET; nanoBRET in live HEK293 cells transfected with p53-nanoLUC and Mdm2-HaloTag; stapled peptide titrated (10 points), 10% FCS, signal after 4 hours. The conditions noted are these: one partner purified.
In experiment [4] the target is T1, Mdm2 (1-125). The experiment is described as follows: fluorescence polarisation; competitive fluorescence anisotropy (FA) assay on Mdm2 (1-125); Kd determined from the competition; details in the supplementary information. The conditions noted are these: both partners purified. In general terms: In fluorescence polarisation assays a small probe gives low polarisation when free and higher when bound to something large.

A word on the IC50: it is the point on the concentration scale where inhibition reaches its midpoint. Lower therefore signals greater potency. In general, Kd refers to the equilibrium constant for the complex coming apart. Low values mean tighter binding, high ones weaker binding. With Ac-KK[Ahx]TSF[R8]EYWALL[S5]ENF-NH2 (staple 7-14) [VIP-82], the “EC50 of p53 activation, T22 p53 reporter cells (β-galactosidase), 0% FCS; blocks Mdm2:p53” value in experiment [1] is 0.8 µM. In addition, in experiment [1], the “EC50 of p53 activation, T22 p53 reporter cells (β-galactosidase), 10% FCS; blocks Mdm2:p53” value is 10 µM. Besides, the values for the IC50 in experiment [2] and in experiment [3] were 3.9 ± 0.2 µM and 17.5 ± 1.3 µM, respectively. In experiment [4], this molecule yielded a Kd of 24.4 ± 2.3 µM.
